One experiment deals with T1, human IL-2 (wildtype) (human, UniProt P60568 21-153).
T1 construct: also called IL-2 (WT); IL-2 wt
Put plainly: SET assay (solution equilibration titration, MSD).

For experiment [1], the target named is T2, Proleukin® (aldesleukin) (human, UniProt P60568 21-153, limits assumed).
T2 construct: Variant of human wt IL-2 with C145S (C125S on mature IL-2); also called IL-2 (Proleukin®); human IL-2 (Proleukin)
Put plainly: ELISA, coated Proleukin, mean of 3 experiments.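 Note: binding of anti-human IL-2 antibodies, tested as an 11-point dilution series for 2 hours, to plate-bound IL-2, detected via streptavidin-HRP with absorbance read at 450 nm.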
Protocol: ELISA plates (Corning) were coated with human IL-2 (Proleukin) at 10 μg/mL in PBS overnight at 4° C. The plates were washed 6 times with PBST, then blocked in 1% BSA/PBST for 2 hours. After blocking and washing, the anti-human IL-2 antibodies were added on the plate in an 11-point dilution series in 1% BSA/PBST and incubated for 2 hours. […] The plates were then washed again and incubated with Streptavidin-Horseradish Peroxidase in 1% BSA/PBS for 45 minutes. After washing, the substrate (R&D Systems) was added into the plates and the enzymatic reaction was stopped after 3 minutes by adding Stop Solution. The plates were read by a microplate reader at 450 nm with a wavelength correction set to 540 nm.

In experiment [2] the target is T2, Proleukin® (aldesleukin). Put plainly: SET assay (solution equilibration titration, MSD).
Protocol: A 22 serial 2n dilution of the antigen was prepared in sample buffer. A constant concentration of the antibody was added. […] A volume of 60 μl of each antigen:antibody mix was distributed in duplicates to a 384-well polypropylene microtiter plate (PP MTP). Sample buffer served as negative control and a sample containing no antigen as positive control (Bₘₐₓ). The plate was sealed and incubated overnight (o/n) at room temperature (RT). A 384-well standard MSD array plate was coated o/n with 2 μg/ml of IL-2. After three times washing with washing buffer, the plate was blocked with 50 μl/well blocking buffer for 1 hour at RT. After washing, a volume of 30 μl/well of the antigen:antibody mix was transferred from the PP MTP to the coated MSD plate and incubated for 20 min at RT. After an additional wash step, 30 μl of detection antibody (diluted 1:2000) in sample buffer was added to each well and incubated for 30 min at RT. The MSD plate was washed and 35 μl/well of read buffer was added and incubated for 5 min. ECL signals were measured with the MSD SECTOR Imager 6000.
Experiment [3] has as its target T2, Proleukin® (aldesleukin). Kind of experiment: ELISA, coated Proleukin, HEK293F supernatant 1:2.
Protocol: Subsequently, hIL-2 binding efficiency of the antibodies present in the supernatants was determined using ELISA. In brief, ELISA plates (Maxisorp 96-well black microtiter plate) were coated overnight at 4° C. with 100p/well of Proleukin® (5 μg/ml PBS). ELISA plates were washed once with TBST (1×TBS/0.05% Tween 20) using a plate-washer (BioTek). […] After removal of the blocking buffer, plates were washed once with TBST using the plate washer. Supernatants were diluted 1:2 in blocking buffer and 50 μl transferred to the designated well of the ELISA plate. Each sample was present on three ELISA plates. The three plates were incubated at RT under gentle agitation. […] The other two plates were washed either every hour three times with TBST for 4 hours or washed every hour three times for 12 hours before adding the detection antibody. […] Luminescence signal was measured after 5 minutes incubation in the dark. […] All ELISA values are mean values based on two measurements.
Experiment [4] deals with T2, Proleukin® (aldesleukin). Kind of experiment: ELISA, coated Proleukin, serially diluted supernatant.

Numbering of substitutions follows the chain as printed. Names may count otherwise.

T2 sequence (P60568 other isoform, or with tags, fused parts or gaps limits assumed): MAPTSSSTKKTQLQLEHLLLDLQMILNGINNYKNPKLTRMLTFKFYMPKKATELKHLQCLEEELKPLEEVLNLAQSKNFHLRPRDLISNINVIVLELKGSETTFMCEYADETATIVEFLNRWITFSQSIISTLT
T1 sequence (P60568 21-153 limits assumed): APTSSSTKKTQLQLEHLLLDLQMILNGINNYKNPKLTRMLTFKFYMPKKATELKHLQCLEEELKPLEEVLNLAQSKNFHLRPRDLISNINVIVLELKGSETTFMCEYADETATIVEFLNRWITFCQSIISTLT

B1: NARA1 (antibody, mouse IgG2a, kappa, V domains shown)
VH: QVQLQQSGAELVRPGTSVKVSCKASGYAFTNYLIEWVKQRPGQGLEWIGVINPGSGGTNYNEKFKGKATLTADKSSSTAYMQLSSLTSDDSAVYFCARWRGDGYYAYFDVWGAGTTVTVSS
VL: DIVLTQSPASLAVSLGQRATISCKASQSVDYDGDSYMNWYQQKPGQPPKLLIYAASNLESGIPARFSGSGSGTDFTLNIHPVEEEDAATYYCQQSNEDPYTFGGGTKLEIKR
notes: Mouse monoclonal anti-human IL-2 antibody, mouse IgG2a; also called anti-IL-2 (NARA1)-mIgG2a; anti-IL-2 (NARA1)-mouse IgG2a
On to B1, for which, in the experiment with human IL-2 (wildtype), the binding result is recorded as “binds”. The molecule also displayed an EC50 with Proleukin® (aldesleukin) [1] of 0.3 nM. The molecule also registered a Kd with Proleukin® (aldesleukin) [2] of 0.078 nM.

B2: 104348_VH5D98E_VK1D28Q (antibody, human IgG1, kappa, N297A, V domains shown)
VH: EVQLVQSGAEVKKPGESLKISCKGSGYAFTNYLIEWVRQMPGKGLEWMGVINPGSGGTNYNEKFKGQVTISADKSISTAYLQWSSLKASDTAMYYCARWRGEGYYAYFDVWGQGTTVTVSS
VL: AIRLTQSPSSFSASTGDRVTITCKASQSVDYQGDSYMNWYQQKPGKAPKLLIYAASNLESGVPSRFSGSGSGTDFTLTISSLQSEDFATYYCQQSNEDPYTFGGGTKVEIKR
notes: also called Antibody No: 1; parental antibody
With B2, the EC50 in the experiment with Proleukin® (aldesleukin) [1] was found to be 1.18 nM. Further, in the experiment with Proleukin® (aldesleukin) [3], the “ELISA value (Normal ELISA)” value is 1180 luminescence signal, the “ELISA value (wash 3x every hour for 4 HRS)” value came out at 1060 luminescence signal and the “ELISA value (wash 3x every hour for 12 HRS)” value turned out to be 717 luminescence signal. Also, in the experiment with Proleukin® (aldesleukin) [2], binding was characterised by a dissociation constant (Kd) of 0.272 nM. In the experiment with Proleukin® (aldesleukin) [4], this molecule yielded an EC50 of 1.04 nM.

B3: 104348_VH5_VK1D28Q (antibody, V domains shown)
VH: B2 VH with E102D
VL: AIRLTQSPSSFSASTGDRVTITCKASQSVDYQGDSYMNWYQQKPGKAPKLLIYAASNLESGVPSRFSGSGSGTDFTLTISSLQSEDFATYYCQQSNEDPYTFGGGTKVEIK
notes: Human IgG1 Fc domain with the N297A point mutation
As to B3, the EC50 with Proleukin® (aldesleukin) [1] amounted to 0.97 nM. In the experiment with Proleukin® (aldesleukin) [2], this molecule displayed a Kd of 0.155 nM.

B4: 104349_VH5_VK2D28Q (antibody, V domains shown)
VH: B2 VH with E102D
VL: DIVLTQSPLSLPVTLGQPASISCKASQSVDYQGDSYMNWYQQRPGQSPRLLIYAASNLESGVPDRFSGSGSGTDFTLKISRVEAEDVGVYYCQQSNEDPYTFGGGTKVEIK
notes: as for B3
The molecule B4 had an EC50 with Proleukin® (aldesleukin) [1] of 0.43 nM. The same molecule gave a Kd with Proleukin® (aldesleukin) [2] of 0.069 nM.

B5: 104349_VH5D98E_VK2D28Q (antibody, V domains shown)
VH: B2 VH
VL: B4 VL
notes: as for B3
B5 showed an EC50 in the experiment with Proleukin® (aldesleukin) [1] of 0.66 nM. This molecule displayed a Kd in the experiment with Proleukin® (aldesleukin) [2] of 0.188 nM.

B6: 104348 (antibody, human IgG1, kappa, N297A, V domains shown)
VH: B2 VH with E102D
VL: B2 VL with Q32D
notes: VH5/VK1, human IgG1 N297A
As to B6, in the experiment with human IL-2 (wildtype), the binding result is listed as “binds”. In the experiment with Proleukin® (aldesleukin) [1], a half-maximal effect (EC50) was put at 0.3 nM. In addition, binding with Proleukin® (aldesleukin) [2] was characterised by a dissociation constant (Kd) of 0.105 nM.

B7: 104348_VH5D98E_VK1 (antibody, V domains shown)
VH: B2 VH
VL: B3 VL with Q32D
notes: as for B3
As to B7, in the experiment with Proleukin® (aldesleukin) [1], a half-maximal effect (EC50) was put at 0.77 nM. In the experiment with Proleukin® (aldesleukin) [2], this molecule returned a Kd of 0.206 nM.

B8: 104343_VH1D98E_VK2D28Q (antibody, V domains shown)
VH: QVQLVQSGAEVKKPGSSVKVSCKASGYAFTNYLIEWVRQAPGQGLEWMGVINPGSGGTNYNEKFKGRVTITADKSTSTAYMELSSLRSEDTAVYYCARWRGEGYYAYFDVWGQGTTVTVSS
VL: B4 VL
notes: as for B3
In the experiment with Proleukin® (aldesleukin) [1], B8 yielded an EC50 of 0.75 nM. The Kd in the experiment with Proleukin® (aldesleukin) [2] was found to be 0.111 nM.

B9: 104343_VH1D98E_VK2 (antibody, V domains shown)
VH: B8 VH
VL: B4 VL with Q32D
notes: as for B3
B9 returned an EC50 with Proleukin® (aldesleukin) [1] of 0.57 nM. The same molecule showed a Kd in the experiment with Proleukin® (aldesleukin) [2] of 0.098 nM.

B10: 104343_VH1_VK2D28Q (antibody, V domains shown)
VH: B8 VH with E102D
VL: B4 VL
notes: as for B3
Take B10: the EC50 with Proleukin® (aldesleukin) [1] worked out at 0.59 nM. Binding with Proleukin® (aldesleukin) [2] was put at a Kd of 0.069 nM.

(Values after patent US20210246200A1 (UNIVERSIT T Z RICH, published 2021).)
